Experimental data: the DeepSol protein solubility set

assay: soluble on expression in E. coli; label from the status in PepcDB or PDB records

Soluble on expression in E. coli, not soluble:
MGSDKIHHHHHHMLISVVLPAYNVQDTIGESIDSILSQTFTDFELIIINDGSQDNTEEVIHAYSDKRIRYYRNEKNEGLIYTLNRGLDLAQGKYIARMDADDVSLPTRFEKQVKVMEESPNIVVCGTQIILFGVDTAKRFTLFLPEESEDLKNLLFIQTCFAHPTVMVRRQVLIDNEVRYDADYPHAEDYKMWIDLSLLGEFYNIQEPLLRYRLSDGQVSHKFSDVQKRTASACRRFLISARFKDEKLDRQIENSIDISTICYIKKKEYPRELLEVLYSSLRKYNFKCLCYLFVSGDIFRFEIVVALALLKRFIIKKDRLL, MGSDKIHHHHHHMLKLLKPKHRSILGIDISSSAVKILEISGSGEDICVEGYGREEIPASALEGNIIKDVDVVANCIKKLVERLKFTSKNVALAVPDSAVISKVVQINEGLTDLEMEELVVIEADKYIPYPIDEINLDFEVLGHSAKSSSLLDVLIVASRAENVNTRVEAAHRAGLEPKVVDVESYAVERSVQQIAQELPASGQDKIVAIVDIGANYTHLFVLHGMRLIFSREEKFGGMQLVEAIAEHYHMNLEQAIALKNQGKLPEDYESAVLEPFKDMILLQIKRTLQFFYSTSQHGFVDHILLAGGMARQSGLAALIQEQLGVTTTVANPLSHMSFGKKVNLDVINSDAPTLMVACGLALRHVE, MGSDKIHHHHHHMLKVRHLEIFRAVVKAGSVSAAARLLYVSQPAVTKTLRMLEEEIGLTLFLRVKGRLVCTPEAESILPEIERLFGSVQSIAETAREIRQGQRGSIRVSTVSMLATTIVARAVGEFRKTHPYVEFDVRALPTRHVVEYVNNNQADFGILDVAAPSGTLEVEEFCSADLRCVMRAAHPLASRKTITPRLLDNEALATFGEDTLTGWRLREAFRAQGRPFTSVFVSNSTPVLCALVREADAVALVDPFALMSRSFPDLVSRRFSPSVPVQPRFLFAPGRPRSVIVDQFVSQLRKTAGEMAMG, MGSDKIHHHHHHMLKVSDLRLKYPNGQRKIFDHLNITIQDKEKVLLLGPSGCGKSTLLNVLSGIVPNLIELPMKYDELIVDPLSGVIFQDPDSQFCMPKVYEELAFVLENRQVPREDMDALIINALNMVNLNVTPETYIKDLSGGMKQKLAIVETILQQSKTLFLDEPTAMLDVQATEDLWTKLIELWEDQTVVIVEHKVKHIWNHVDRVILMDYNGNIIADECPEIILQKYVHLLSEYGVWHPRAWEFAPSRVDFPTTNSHLLQFKNGRIIRGKSTLLSFSDLEIGLGEWITITGANGSGKTTLLESIMQLIKYQGDVYFENQRLTKIKHAAKHMYLVYQNPELQFITNSVYDEINIHFNHLSKDQSDDETIQLLKLLDLQNVKDQHPYELSIGQKRRLSVATALSSKADIIFLDEPTFGLDSHNTFQLIKLFQKRINLGQSIVMVTHDDEIIERYPSRRLKISDGALLDCDGDTNV, MGSDKIHHHHHHMLLQTKSNEMLLEKVMDEFSAATSLASVVVDIHGTEVSRLCNFTPFCQLIRSNPKYRSLCQKCDMFGGLEASKTGKPLIYRCHAGLTDFSVPIVVENQLSGFLLSGQVICEENSEVGNIQTEETDWKNDKDLISAFRSVPVFSSKKINSSAEMLTIISQYYLKSEMEKSREEQKQKIVFHHNKPTHHEDNKEIRKALKYIEKNLNRPITLDEVASHVYLSSYYFSKLFKKEMNVNFINYVNQKKMSLAKDMLKNPRWSIDNVARNLGFTQTSYFCKVFRKEFDVTPKGYRETLK, MGSDKIHHHHHHMLLTRNEPFTAEKIQAKADILELVQFERFCRDNALWDAMETCFTKDSNVKISWFQGTGHGFIEASKKMTNPAPHKIYNTQVWIKNDRAVAIMQATIQTRTIINGVEMELNSDAKLVTRVERIDGKWYINAFEGVYEKDSLMPVVPSKNADVPAELLANFRKSYACLALSLTLNGYEIDNNLPGIDRPEQVTQFFKEADEWLLQ, MGSDKIHHHHHHMLPKWDNSYSVHNAKIDEQHKKLFKLAAKVEVVSDRSVSKNEVKELLAEFFNYMKDHFNDEEKYMQLIGYPNLEEHRKIHKEIIQTMINLIKDIKSTNDLKEKLYIVAKKWLLEHILYEDMKVEKWRSSSLSTDDGGDVSFEAAEDEDNEHPQFYLYTCNCPGKIHDVPYSIHQKIELQGRKFTCKTCKQAIKFYKKYS
